# According to paper PMC2211892:
# B1: C1 esterase inhibitor (C1-INH), purified (natural protein)
# chain: NPNATSSSSQDPESLQDRGEGKVATTVISKMLFVEPILEVSSLPTTNSTTNSATKITANTTDEPTTQPTTEPTTQPTIQPTQPTTQLPTDSPTQPTTGSFCPGPVTLCSDLESHSTEAVLGDALVDFSLKLYHAFSAMKKVETNMAFSPFSIASLLTQVLLGAGENTKTNLESILSYPKDFTCVHQALKGFTTKGVTSVSQIFHSPDLAIRDTFVNASRTLYSSSPRVLSNNSDANLELINTWVAKNTNNKISRLLDSLPSDTRLVLLNAIYLSAKWKTTFDPKKTRMEPFHFKNSVIKVPMMNSKKYPVAHFIDQTLKAKVGQLQLSHNLSLVILVPQNLKHRLEDMEQALSPSVFKAIMEKLEMSKFQPTLLTLPRIKVTTSQDMLSIMEKLEFFDFSYDLNLCGLTEDPDLQVSAMQHQTVLELTETGVEAAAASAISVARTLLVFEVQQPFLFVLWDQQHKFPVFMGRVYDPRA
# Molecular target: StcE′ E435D-His (Escherichia coli O157:H7) (UniProt O82882)
# Test: flow cytometry on cells
binder,measurement,value
B1,fold level of C1-INH on erythrocyte surfaces against StcE′-His,22 fold
